Assay results as given in the RNAGym collection of RNA variant scans (doi:10.7554/elife.80360).

B1: Hammerhead Ribozyme (parent)
chain: ACCGGAUGUGCUUUCCGGUCUGAUGAGUCCGUGAGGACGAAACAG

Variants of: B1
Test: self-cleavage, relative activity (ratio to wild type); higher = more cleavage; co-transcriptional

Row | Variant | self-cleavage
1 | UCCGGAUGUGCUUUCCGGUCUGAUGAGUCCCUGAGGACGAAACAG [A1U G31C] | 0.621
2 | ACCGGAUGUGCUUUCCGGUCUGAUGCGUCCGUGAGGACGACACAG [A26C A41C] | 0.369
3 | ACCGGAUGUCCUAUCCGGUCUGAUGAGUCCGUGAGGACGAAACAG [G10C U13A] | 1.03
4 | ACCGGAUGUGCUUACCGGUCCGAUGAGUCCGUGAGGACGAAACAG [U14A U21C] | 0.586
5 | ACCGGAUGUGCUUUCCGGUCUGAUGAGUUCGUGAGGACGAACCAG [C29U A42C] | 0.326
6 | ACCGGAUGUGCGUUGCGGUCUGAUGAGUCCGUGAGGACGAAACAG [U12G C15G] | 0.819
7 | ACCGGAUGUGCUUUCCGGUCUGAUGAGUCCGUUAGGACGAAACAU [G33U G45U] | 0.912
8 | ACGGGAUGUGCUUUCCGGUCUGAUGAGUCCCUGAGGACGAAACAG [C3G G31C] | 0.527
9 | ACCGGAUGUGCUUUCCGGGCUGCUGAGUCCGUGAGGACGAAACAG [U19G A23C] | 0.346
10 | ACCGGAUGUGCCUUCCGGUCUGAUGAGUCCGUGAGGACGAUACAG [U12C A41U] | 0.288
11 | ACCGGAUGUGAUUUCCGGUCUGAUGAGUCCGUGAGGACGACACAG [C11A A41C] | 0.371
12 | AUCGGUUGUGCUUUCCGGUCUGAUGAGUCCGUGAGGACGAAACAG [C2U A6U] | 0.865
13 | UCCGGAUGUGCUUUCCGGUCUGAUGUGUCCGUGAGGACGAAACAG [A1U A26U] | 0.383
14 | ACCGGAUGUGCGUUCCGGUCUGAUGACUCCGUGAGGACGAAACAG [U12G G27C] | 0.433
15 | ACCGGAUGUGCUUUCUGGGCUGAUGAGUCCGUGAGGACGAAACAG [C16U U19G] | 0.359
16 | ACCGCAUGUUCUUUCCGGUCUGAUGAGUCCGUGAGGACGAAACAG [G5C G10U] | 0.64
17 | ACCGGAUGAGCUUUCAGGUCUGAUGAGUCCGUGAGGACGAAACAG [U9A C16A] | 1.15
18 | AUCGGAUGUGCUUUCCGGUCUGAUGAGUCCGUGAGGACCAAACAG [C2U G39C] | 0.336
19 | ACCGGAUGUACUUUUCGGUCUGAUGAGUCCGUGAGGACGAAACAG [G10A C15U] | 0.919

Row | Variant | self-cleavage
20 | ACCGGAUGUACUUUCCGGUCGGAUGAGUCCGUGAGGACGAAACAG [G10A U21G] | 0.462
21 | ACCGGAUGUGCUUUCCGGUCUGAUAAGUCGGUGAGGACGAAACAG [G25A C30G] | 0.305
22 | ACCGGAAGUGCUUUCCGGUCUGAUGAGUCCCUGAGGACGAAACAG [U7A G31C] | 1.28
23 | ACCGGACGUGCUCUCCGGUCUGAUGAGUCCGUGAGGACGAAACAG [U7C U13C] | 1.4
24 | ACCGGAUGUGAGUUCCGGUCUGAUGAGUCCGUGAGGACGAAACAG [C11A U12G] | 1.61
25 | ACCGGAUACGCUUUCCGGUCUGAUGAGUCCGUGAGGACGAAACAG [G8A U9C] | 1.33
26 | ACCGGAUGUGCUUUCUGGUCUGAUAAGUCCGUGAGGACGAAACAG [C16U G25A] | 0.338
27 | ACAGGAUGUGCUUUCCGGUCUGAUGAGUCCGUGAAGACGAAACAG [C3A G35A] | 0.376
28 | ACCGGAUGUCCUUUCCGGUCUGAUGAGUCCGUGAUGACGAAACAG [G10C G35U] | 0.818
29 | ACCGGAUGUGCUGUCCGGUCUGAUGAGUCCGUGAGGACGGAACAG [U13G A40G] | 0.281
30 | ACCGGAUGUGCUUUCCGGUCUGUUGAGUCCAUGAGGACGAAACAG [A23U G31A] | 0.631
31 | ACCGGAUGUGCUAUCCCGUCUGAUGAGUCCGUGAGGACGAAACAG [U13A G17C] | 0.815
32 | ACCGGAUGUGUUUUCCGGUCUGAUGAGUCGGUGAGGACGAAACAG [C11U C30G] | 0.714
33 | GCCGGAUGUGCUUUCCGGUCUGAUGAGUCCUUGAGGACGAAACAG [A1G G31U] | 1.88
34 | ACCGUAUGUGCUUUCCUGUCUGAUGAGUCCGUGAGGACGAAACAG [G5U G17U] | 0.351
35 | ACCGGAUGUGCGUUCCGGUCUGAUGAGUCCGUGAGGACGAAGCAG [U12G A42G] | 0.356
36 | CCCGGAUGUGCUUUCCGGUCUGAUGAGUCCGUGAGGACGAGACAG [A1C A41G] | 0.328
37 | ACCGGAUGUGCUUUCCGGCCUGAUGAGUCCGUUAGGACGAAACAG [U19C G33U] | 0.792
38 | ACCGGAUCUGCUUUCCGGUCUGAUGAGUCCGUGACGACGAAACAG [G8C G35C] | 0.726

Row | Variant | self-cleavage
39 | ACCGGAUGUGCUUUCCGGUCUGAUGAGUCCGUGAGCACGAAUCAG [G36C A42U] | 0.286
40 | ACCGGAUGUGCUUCCCGGUCUGAUGAGUCCGUGAGGACGCAACAG [U14C A40C] | 0.277
41 | ACCGGAUGUGCUUCCCGGUCUGAUGAGUCCGUGAGGACGUAACAG [U14C A40U] | 0.354
42 | ACCGCAUGUGCUUUCGGGUCUGAUGAGUCCGUGAGGACGAAACAG [G5C C16G] | 0.716
43 | ACCGUAUGUGCUUUCCGGUCUGAUGAGUCCGUGAGAACGAAACAG [G5U G36A] | 0.417
44 | ACCGGAUCUGCUUUCCGGUCUGAUUAGUCCGUGAGGACGAAACAG [G8C G25U] | 0.329
45 | ACCGGAUUUGCUUUCAGGUCUGAUGAGUCCGUGAGGACGAAACAG [G8U C16A] | 0.908
46 | ACCGGAUGUGCUAUCCGGUCUGAUGAGUCCGUGAGGACAAAACAG [U13A G39A] | 0.317
47 | ACCGGAUGUGCCUUCCGGUCUGAUGAGUCCGUGAGAACGAAACAG [U12C G36A] | 0.55
48 | AUCGGAUGUGCUUUGCGGUCUGAUGAGUCCGUGAGGACGAAACAG [C2U C15G] | 0.385
49 | ACCGGAUGGGCUUUCCGGUCUGAUGAGUCCGUGACGACGAAACAG [U9G G35C] | 0.562
50 | ACCGGAUGUGCGUUCCGGUCUGAUGAGUCCGUGAGGACAAAACAG [U12G G39A] | 0.4
51 | ACGGGAUGUGCUAUCCGGUCUGAUGAGUCCGUGAGGACGAAACAG [C3G U13A] | 1.02
52 | ACCGGAUGUGCUUUCCGGUCUGAUGAGUCCGUGAGGACGAAUCGG [A42U A44G] | 1.37
53 | ACCGGAUGUGCUUUCCGGUCUGAUGAGCCCGUGAGCACGAAACAG [U28C G36C] | 0.297
54 | ACCGUAUGUGCUUUCCGGUCUGAUGAGUCCGUGAGGACGAACCAG [G5U A42C] | 0.327
55 | ACCGGAUGUGCUGUCCGGUCUGAUGAAUCCGUGAGGACGAAACAG [U13G G27A] | 0.66
56 | CCCGGAUGUGCUUUCCGGUCUGAUGAGUCCGUGAGGAUGAAACAG [A1C C38U] | 0.495
57 | ACCGGAUGUGCUUUCCUGUCUGAUGAGUACGUGAGGACGAAACAG [G17U C29A] | 0.523
